Source: publication PMC10855199

Target: Aβ42 oligomers
Assay: SPR; Biacore T200; AL fibrils (1000 RU) or Aβ42 oligomers (500 RU) amine-coupled on CM5; two-fold serial dilutions of whole antibody injected at 30 μL/min; 25 °C; 10 mM phosphate, 137 mM NaCl, 2.7 mM KCl, 0.05% Tween-20, pH 7.5; global fit to a Langmuir 1:1 model

Kd: 1.53 nM
koff: 0.00116 s⁻¹
kon: 761000 M⁻¹ s⁻¹
B1: wild-type crenezumab (antibody, V domains shown)
VH: EVQLVESGGGLVQPGGSLRLSCAASGFTFSSYGMSWVRQAPGKGLELVASINSNGGSTYYPDSVKGRFTISRDNAKNSLYLQMNSLRAEDTAVYYCASGDYWGQGTTVTVSS
VL: DIVMTQSPLSLPVTPGEPASISCRSSQSLVYSNGDTYLHWYLQKPGQSPQLLIYKVSNRFSGVPDRFSGSGSGTDFTLKISRVEAEDVGVYYCSQSTHVPWTFGQGTKVEIK
